The test in a line: Calibration of free NIR probe/sensor by bilirubin titration (cuvette fluorometry, fit with equation 1). The following applies: for Qs (Rm/Ro): degree to which the probe is quenched by bilirubin binding, effect of fluorophore position. The class given is binding. The source says: Embodiments provided herein are directed to methods of calibrating the bilirubin probes by mixing in an aqueous media the sensor with samples of bilirubin of increasing total bilirubin concentrations (BT), measuring the ratio of fluorescence intensities R of the sensor at each concentration, and determining the calibration parameters (Kd, Rm, and Ro) from the measured fluorescence by fitting with the equation (1), wherein R is the measured fluorescence ratio (Iλ1/Iλ2), where hi is the fluorescence intensity from the first fluorophore at wavelength λ1 and Iλ2 is the fluorescence intensity from the second fluorophore at wavelength λ2, both λ1 and λ2 have background subtracted, and Ro is the ratio in the absence of bilirubin. BT is the total bilirubin concentration and PT is the concentration of the sensor, r is the Iλ2/Iλ1 ratio of the bilirubin sensitive probe's fluorescence in the absence of the second fluorophore, Kd is the equilibrium dissociation constant of the sensor and Rm is the ratio R extrapolated to infinite BT. Equation (1) is used in some embodiments rather than equation (5) of U.S. Pat. No. 9,529,003 when Rm is >0.
Also described are methods for calibrating and using a bilirubin sensor described herein so that Bf concentrations can be determined in approximately 5 μl of undiluted blood samples in a single step. These small volume blood samples are applied to the disposable plastic microfluidic cartridges containing the dried bilirubin ratio sensor. The bilirubin sensor containing cartridges are preferably used for a single measurement and the calibration parameters (Kd, Rm, Ro) must be determined within a “lot” of identically manufactured cartridges. The calibration is performed by titrating a sufficient number of cartridges with aqueous samples of increasing well-defined Bf levels. Because plastics bind unbound bilirubin and because surface to volume ratio in the microfluidics channel is large, the calibration Bf samples must be highly buffered by complexes with albumin. The Bf concentrations of each complex are determined by measuring each by cuvette fluorometry using a calibrated sensor free in aqueous solutions. The free sensor is calibrated by titration with aqueous solutions of bilirubin where the concentrations of these unbound bilirubin solutions are determined by absorbance. The free probe's response (R values versus Bf concentrations) are used to determine the free sensor's calibration (Kd, Rm, Ro) (equation 1). The calibrated free sensor mixed with samples of each of the BR:HSA complexes is used to determine the Bf concentrations of each complexes by cuvette fluorometry using equation 2. These calibrated complexes are used to determine the binding parameters of the disposable cartridges including the equilibrium dissociation constant (Kd), the minimum fluorescence ratio (Rm) and the initial ratio (Ro) under defined conditions, of temperature, pH, and solution composition, suitable for blood samples. Binding isotherms are performed in aqueous buffer by measuring the change in fluorescence of the bilirubin sensor in response to increasing bilirubin concentrations (“titration data”). The set of fluorescence responses at each bilirubin concentration are fitted with an appropriate equation (“calibration equation (3)”) that correctly describes the fluorescence response as a function of the Bf concentration, the, specific spectroscopic characteristics, and the Kd.
All responder probes labeled with LICOR 700DX-maleimide and non-responder probes labeled with LICOR 800CW-maleimide probes in Tables 1 and 2, respectively have qualitatively similar dependencies on Bf. The probes differ mostly in protein expression, binding parameters (Kd, Ro and Rm) and stability. […] Although the non-responders are not characterized by bilirubin binding parameters, the emission spectrum of the 800CW-maleimide is sensitive to specific substitutions that can alter the LICOR 700DX-maleimide intensities. […]

Where [1] appears, read: effect of fluorophore (cysteine) position, responder probe labeled with 700DX-maleimide.
The mark [2] stands for this setting: free Bf sensor, fit of equation 1 (FIG. 2).

What is called Kd is the concentration at which binding is half-saturated.

B1: 76C-C2XH11-700DXM: rIFABP mutein MGI-KR14-14R 18L 27A 38V 60R 73F 76C 106L 115R 117D 131D-C2XH11 labeled with LICOR 700DX-maleimide (protein)
chain: MGIAFDGTWRVDRNENRERFLERMGINVVARRLGAHDNLRVTITQEGNRFTVRESSNFRNIDRVFELGVDFAYSLFDGCELTGTWTMEGNRLVGRFRRVDNGRELIAVLEISGNELIRTDTYEGVEARRIFRRDRGAASHHHHHHSHRATPNTSPHHHHHHH
modifications: LICOR 700DX-maleimide label; mutated bf sensitive probe
notes: rIFABP mutein MGI-KR14-14R 18L 27A 38V 60R 73F 76C 106L 115R 117D 131D-C2XH11 labeled with LICOR 700DX-maleimide
Take B1: the “Qs (Rm/Ro)” value was found to be 0.04. The same molecule had an equilibrium dissociation constant (Kd) under setting [1] of 14 nM. Further, the Kd (free Bf sensor with non-responder Mut:SEQ ID NO:1 B-73C in aqueous buffer, excitation 660 nm, 700/805 ratio, fit of equation 1 (FIG. 2)) is 12.4 ± 0.4 nM. For the same molecule, under setting [2], the “Qs which is Rm/Ro” value was 0.139±0.007, the Rm is 0.42 and the Ro was found to be 3.02.

B2: 30C-C2XH11-700DXM: rIFABP mutein MGI-KR14-14R 18L 27A 30C 38V 60R 73F 106L 115R 117D 131D-C2XH11 labeled with LICOR 700DX-maleimide (protein)
chain: MGIAFDGTWRVDRNENRERFLERMGINVVARRCGAHDNLRVTITQEGNRFTVRESSNFRNIDRVFELGVDFAYSLFDGTELTGTWTMEGNRLVGRFRRVDNGRELIAVLEISGNELIRTDTYEGVEARRIFRRDRGAASHHHHHHSHRATPNTSPHHHHHHH
modifications: C2XH11 tag; LICOR 700DX-maleimide label; mutated bf sensitive probe
notes: rIFABP mutein MGI-KR14-14R 18L 27A 30C 38V 60R 73F 106L 115R 117D 131D-C2XH11 labeled with LICOR 700DX-maleimide
Take B2: the “Qs (Rm/Ro)” value is recorded as 0.11. In addition, binding under setting [1] was put at a Kd of 41 nM.

B3: 25C-C2XH11-700DXM: rIFABP mutein MGI-KR14-14R 18L 25C 27A 38V 60R 73F 106L 115R 117D 131D-C2XH11 labeled with LICOR 700DX-maleimide (protein)
chain: MGIAFDGTWRVDRNENRERFLERMGINCVARRLGAHDNLRVTITQEGNRFTVRESSNFRNIDRVFELGVDFAYSLFDGTELTGTWTMEGNRLVGRFRRVDNGRELIAVLEISGNELIRTDTYEGVEARRIFRRDRGAASHHHHHHSHRATPNTSPHHHHHHH
modifications: C2XH11 tag; LICOR 700DX-maleimide label; mutated bf sensitive probe
notes: rIFABP mutein MGI-KR14-14R 18L 25C 27A 38V 60R 73F 106L 115R 117D 131D-C2XH11 labeled with LICOR 700DX-maleimide
Take B3: the “Qs (Rm/Ro)” value is reported as 0.27. Besides, binding under setting [1] was put at a Kd of 12 nM.

B4: 97C-C2XH11-700DXM: rIFABP mutein MGI-KR14-14R 18L 27A 38V 60R 73F 97C 106L 115R 117D 131D-C2XH11 labeled with LICOR 700DX-maleimide (protein)
chain: MGIAFDGTWRVDRNENRERFLERMGINVVARRLGAHDNLRVTITQEGNRFTVRESSNFRNIDRVFELGVDFAYSLFDGTELTGTWTMEGNRLVGRFRRVCNGRELIAVLEISGNELIRTDTYEGVEARRIFRRDRGAASHHHHHHSHRATPNTSPHHHHHHH
modifications: LICOR 700DX-maleimide label; mutated bf sensitive probe
notes: rIFABP mutein MGI-KR14-14R 18L 27A 38V 60R 73F 97C 106L 115R 117D 131D-C2XH11 labeled with LICOR 700DX-maleimide
As for B4, the “Qs (Rm/Ro)” value was found to be 0.29. Moreover, the Kd under setting [1] came out at 25 nM.

B5: 74C-C2XH11-700DXM: rIFABP mutein MGI-KR14-14R 18L 27A 38V 60R 73F 74C 106L 115R 117D 131D-C2XH11 labeled with LICOR 700DX-maleimide (protein)
chain: MGIAFDGTWRVDRNENRERFLERMGINVVARRLGAHDNLRVTITQEGNRFTVRESSNFRNIDRVFELGVDFAYSLFCGTELTGTWTMEGNRLVGRFRRVDNGRELIAVLEISGNELIRTDTYEGVEARRIFRRDRGAASHHHHHHSHRATPNTSPHHHHHHH
modifications: C2XH11 tag; LICOR 700DX-maleimide label; mutated bf sensitive probe
notes: rIFABP mutein MGI-KR14-14R 18L 27A 38V 60R 73F 74C 106L 115R 117D 131D-C2XH11 labeled with LICOR 700DX-maleimide
Turning to B5, the “Qs (Rm/Ro)” value came to 0.15. Under setting [1], this molecule returned a Kd of 16 nM.

B6: 98C-C2XH11-700DXM: rIFABP mutein MGI-KR14-14R 18L 27A 38V 60R 73F 98C 106L 115R 117D 131D-C2XH11 labeled with LICOR 700DX-maleimide (protein)
chain: MGIAFDGTWRVDRNENRERFLERMGINVVARRLGAHDNLRVTITQEGNRFTVRESSNFRNIDRVFELGVDFAYSLFDGTELTGTWTMEGNRLVGRFRRVDCGRELIAVLEISGNELIRTDTYEGVEARRIFRRDRGAASHHHHHHSHRATPNTSPHHHHHHH
modifications: LICOR 700DX-maleimide label; mutated bf sensitive probe
notes: rIFABP mutein MGI-KR14-14R 18L 27A 38V 60R 73F 98C 106L 115R 117D 131D-C2XH11 labeled with LICOR 700DX-maleimide
As for B6, the “Qs (Rm/Ro)” value stood at 0.03. Also, binding under setting [1] was characterised by a dissociation constant (Kd) of 13 nM.

B7: 54C-C2XH11-700DXM: rIFABP mutein MGI-KR14-14R 18L 27A 38V 54C 60R 73F 106L 115R 117D 131D-C2XH11 labeled with LICOR 700DX-maleimide (protein)
chain: MGIAFDGTWRVDRNENRERFLERMGINVVARRLGAHDNLRVTITQEGNRFTVRESSCFRNIDRVFELGVDFAYSLFDGTELTGTWTMEGNRLVGRFRRVDNGRELIAVLEISGNELIRTDTYEGVEARRIFRRDRGAASHHHHHHSHRATPNTSPHHHHHHH
modifications: C2XH11 tag; LICOR 700DX-maleimide label; mutated bf sensitive probe
notes: rIFABP mutein MGI-KR14-14R 18L 27A 38V 54C 60R 73F 106L 115R 117D 131D-C2XH11 labeled with LICOR 700DX-maleimide
As to B7, the “Qs (Rm/Ro)” value was 0.48. Also, under setting [1], the Kd was 22 nM.

B8: 33C-C2XH11-700DXM: rIFABP mutein MGI-KR14-14R 18L 27A 33C 38V 60R 73F 106L 115R 117D 131D-C2XH11 labeled with LICOR 700DX-maleimide (protein)
chain: MGIAFDGTWRVDRNENRERFLERMGINVVARRLGACDNLRVTITQEGNRFTVRESSNFRNIDRVFELGVDFAYSLFDGTELTGTWTMEGNRLVGRFRRVDNGRELIAVLEISGNELIRTDTYEGVEARRIFRRDRGAASHHHHHHSHRATPNTSPHHHHHHH
modifications: C2XH11 tag; LICOR 700DX-maleimide label; mutated bf sensitive probe
notes: rIFABP mutein MGI-KR14-14R 18L 27A 33C 38V 60R 73F 106L 115R 117D 131D-C2XH11 labeled with LICOR 700DX-maleimide
B8: the “Qs (Rm/Ro)” value was determined as 0.17. The molecule also came in with a Kd under setting [1] of 25 nM.

B9: 24C- C2XH11-700DXM: rIFABP mutein MGI-KR14-14R 18L 24C 27A 38V 60R 73F 106L 115R 117D 131D-C2XH11 labeled with LICOR 700DX-maleimide (protein)
chain: MGIAFDGTWRVDRNENRERFLERMGICVVARRLGAHDNLRVTITQEGNRFTVRESSNFRNIDRVFELGVDFAYSLFDGTELTGTWTMEGNRLVGRFRRVDNGRELIAVLEISGNELIRTDTYEGVEARRIFRRDRGAASHHHHHHSHRATPNTSPHHHHHHH
modifications: C2XH11 tag; LICOR 700DX-maleimide label; mutated bf sensitive probe
notes: rIFABP mutein MGI-KR14-14R 18L 24C 27A 38V 60R 73F 106L 115R 117D 131D-C2XH11 labeled with LICOR 700DX-maleimide
Regarding B9, the “Qs (Rm/Ro)” value is 0.14. Under setting [1], this molecule came in with a Kd of 44 nM.

B10: 29C-C2XH11-700DXM: rIFABP mutein MGI-KR14-14R 18L 27A 29C 38V 60R 73F 106L 115R 117D 131D-C2XH11 labeled with LICOR 700DX-maleimide (protein)
chain: MGIAFDGTWRVDRNENRERFLERMGINVVARCLGAHDNLRVTITQEGNRFTVRESSNFRNIDRVFELGVDFAYSLFDGTELTGTWTMEGNRLVGRFRRVDNGRELIAVLEISGNELIRTDTYEGVEARRIFRRDRGAASHHHHHHSHRATPNTSPHHHHHHH
modifications: C2XH11 tag; LICOR 700DX-maleimide label; mutated bf sensitive probe
notes: rIFABP mutein MGI-KR14-14R 18L 27A 29C 38V 60R 73F 106L 115R 117D 131D-C2XH11 labeled with LICOR 700DX-maleimide
Take B10: the “Qs (Rm/Ro)” value was found to be 0.52. The same molecule yielded a Kd under setting [1] of 29 nM.

The values are drawn from patent publication US20230053493A1, “ONE STEP METHODS, KITS, AND SYSTEMS FOR THE MEASUREMENT OF CONCENTRATIONS OF UNBOUND BILIRUBIN IN BIOLOGICAL FLUIDS” (priority 2019, published 2023).
